Target: recombinant human PD-L1 (amino acids 19-239 of NP_054862.1) expressed with a C-terminal human IgG1 Fc tag (human)
Assay: SPR (Biacore 3000): 100 nM hPD-L1-hFc + 500 nM mAb on captured hPD-1-mFc, 25C

recombinant human PD-L1 (amino acids 19-239 of NP_054862.1) expressed with a C-terminal human IgG1 Fc tag (human), sequence (chain, as listed by the source limits assumed): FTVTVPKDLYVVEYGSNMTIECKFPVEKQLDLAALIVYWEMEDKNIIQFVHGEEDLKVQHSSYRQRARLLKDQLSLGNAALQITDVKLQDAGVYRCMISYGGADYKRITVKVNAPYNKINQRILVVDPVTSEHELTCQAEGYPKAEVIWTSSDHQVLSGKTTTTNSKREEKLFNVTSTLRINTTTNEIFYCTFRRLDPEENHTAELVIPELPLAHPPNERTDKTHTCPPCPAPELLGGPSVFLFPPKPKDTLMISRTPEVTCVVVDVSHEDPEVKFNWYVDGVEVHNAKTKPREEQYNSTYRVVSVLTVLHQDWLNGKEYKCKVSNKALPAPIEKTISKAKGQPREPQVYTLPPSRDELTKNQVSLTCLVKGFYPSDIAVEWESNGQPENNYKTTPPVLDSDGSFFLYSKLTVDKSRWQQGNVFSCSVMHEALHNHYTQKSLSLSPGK

Isotype control antibody (Table 13, Biacore assay of human Fc antibodies)
% Blocking: 0%
